This is an account of results in US20150376286A1 (Amgen, published 2015).

T1: cynomolgus CGRP receptor (cynoCRLR + cynoRAMP1) (cynomolgus monkey)
T1 chain 1: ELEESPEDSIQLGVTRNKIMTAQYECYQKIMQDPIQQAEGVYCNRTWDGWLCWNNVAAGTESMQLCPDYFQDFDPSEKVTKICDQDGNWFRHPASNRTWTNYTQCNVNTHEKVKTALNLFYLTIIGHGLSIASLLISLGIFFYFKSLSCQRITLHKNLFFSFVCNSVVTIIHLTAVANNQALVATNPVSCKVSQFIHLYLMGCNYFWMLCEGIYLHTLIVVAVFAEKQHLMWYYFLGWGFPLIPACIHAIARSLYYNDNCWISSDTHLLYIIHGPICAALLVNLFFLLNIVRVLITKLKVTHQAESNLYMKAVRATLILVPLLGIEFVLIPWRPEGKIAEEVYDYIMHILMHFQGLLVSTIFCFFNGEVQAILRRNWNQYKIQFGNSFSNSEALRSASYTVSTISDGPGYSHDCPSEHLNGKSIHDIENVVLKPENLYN
T1 chain 2: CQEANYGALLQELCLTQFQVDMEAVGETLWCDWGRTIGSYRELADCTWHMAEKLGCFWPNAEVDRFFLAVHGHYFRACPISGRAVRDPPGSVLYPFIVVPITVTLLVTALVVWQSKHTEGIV

B1: 5F5 (antibody, human IgG2, kappa, V domains shown)
VH: QVQLVESGGGVVQPGRSLRLSCAASGFTFSSYGMHWVRQAPGKGLEWVAVISYDGSHESYADSVKGRFTISRDISKNTLYLQMNSLRAEDTAVYFCARERKRVTMSTLYYYFYYGMDVWGQGTTVTVSS
VL: DIILTQTPLSLSVTPGQPASISCKSSQSLLHSDGKTYLYWYLQKPGQPPQLLIYEVSNRFSGEPDRFSGSGSGTDFTLKISRVEAEDVGTYYCMQSFPLPLTFGGGTKVEIKR
notes: also called 05F5; 05F5.1
B2: 12E8 (antibody, human IgG2, kappa, V domains shown)
VH: B1 VH
VL: B1 VL with I3T, T14S, K35R, T36N, E63L, T90I
notes: also called 12E8.2
B3: 13H2 (antibody, human IgG2, kappa, V domains shown)
VH: EVQLVESGGGLVKPGGSLRLSCAASGYTFSTYSMNWVRQAPGKGLEWVSSISSSSSYRYYADSVKGRFTISRDNAKNSLYLQMSSLRAEDTAVYYCAREGVSGSSPYSISWYDYYYGMDVWGQGTTVTVSS
VL: DIQMTQSPSSLSASVGDRVTITCRASQGIRKDLGWYQQKPGKAPKRLIYGASSLQSGVPSRFSGSGSGTEFTLTISSLQPEDFATYYCLQYNSFPWTFGQGTKVEIKR
notes: also called 13H2.2
B4: 2E7 (antibody, human IgG2, kappa, V domains shown)
VH: EVQLLESGGGLVQPGESLRLSCAASGFTFSSYAMSWVRQAPGKGLEWVSAISGSGGRTYYADSVKGRFTISRDNSKNTLYLQMNSLRAEDTAVYYCAKDQREVGPYSSGWYDYYYGMDVWGQGTTVTVSS
VL: B3 VL with K31N, Y36F, G50A, F83L, S93I, F94Y
notes: also called 02E7; 02E7.2
B5: 4H6 (antibody, human IgG2, kappa, V domains shown)
VH: EVQLVESGGGLVKPGRSLRLSCTASGFTFGDYAMSWFRQAPGKGLEWIGFIRSRAYGGTPEYAASVKGRFTISRDDSKTIAYLQMNSLKTEDTAVYFCARGRGIAARWDYWGQGTLVTVSS
VL: not shown
notes: also called 04H6; 04H6.1
B6: 1E11 (antibody, human IgG2, lambda, V domains shown)
VH: QVQLVESGGGVVQPGRSLRLSCAASGFTFSSFGMHWVRQAPGKGLEWVAVISFDGSIKYSVDSVKGRFTISRDNSKNTLFLQMNSLRAEDTAVYYCARDRLNYYDSSGYYHYKYYGMAVWGQGTTVTVSS
VL: QSVLTQPPSVSEAPGQKVTISCSGSSSNIGNNYVSWYQQLPGTAPKLLIYDNNKRPSGIPDRFSGSKSGTSATLGITGLQTGDEADYYCGTWDSRLSAVVFGGGTKLTVLG
notes: also called 01E11; 01E11.2
B7: 9D4 (antibody, human IgG2, lambda, V domains shown)
VH: B6 VH
VL: B6 VL with E12A, L40F
notes: also called 09D4; 09D4.2
B8: 3C8 (antibody, human IgG2, kappa, V domains shown)
VH: B1 VH
VL: B1 VL with T5A, D33A, E63V, T90I
B9: 10E4 (antibody, human IgG2, lambda, V domains shown)
VH: QVQLVQSGAEVKKPGASVKVSCKASGYTFTDYYMYWVRQAPGQGLEWMGWISPNSGGTNYAQKFQGRVTMTRDTSISTAYMELSRLRSDDTAVYYCVRGGYSGYAGLYSHYYGMDVWGQGTTVTVSS
VL: not shown

Where a chain is given by its changes, count along the chain named.

In the first test the target is T2, human CGRP receptor (CRLR + RAMP1) (human, UniProt Q16602 23-461; O60894 27-148). In words: cell-based or functional assay.
Regarding B1, the “cAMP assay IC50” value was 4.79 nM.

As for B2, the “cAMP assay IC50” value was found to be 2.93 nM.

As for B3, the “cAMP assay IC50” value came to 1.95 nM.

Regarding B4, the “cAMP assay IC50” value worked out at 6.3 nM.

Consider B5, for which the “cAMP assay IC50” value amounted to 3.78 nM.

B6: the “cAMP assay IC50” value came to 1.77 nM.

In the case of B7, the “cAMP assay IC50” value was determined as 1.4 nM.

A further test concerns the target T1, cynomolgus CGRP receptor (cynoCRLR + …). In words: cell-based or functional assay.
Regarding B1, the “cAMP assay IC50” value was found to be 4.78 nM.

For B2, the “cAMP assay IC50” value amounted to 4.13 nM.

For the molecule B8, the “cAMP assay IC50” value was determined as 5.32 nM.

On to B3, for which the “cAMP assay IC50” value came to 8.41 nM.

Take B4: the “cAMP assay IC50” value worked out at 5.51 nM.

For B5, the “cAMP assay IC50” value turned out to be 5.59 nM.

For the molecule B6, the “cAMP assay IC50” value was determined as 2.79 nM.

For the molecule B7, the “cAMP assay IC50” value is 2.46 nM.

For B9, the “cAMP assay IC50” value is 3.23 nM.

In a further test the target is rat CGRP receptor (rat, UniProt Q63118 24-464; Q9JJ74 27-148). In words: cell-based or functional assay.
On to B1, for which the “cAMP assay IC50” value is above 1000 nM.

For the molecule B2, the “cAMP assay IC50” value was above 1000 nM.

For the molecule B8, the “cAMP assay IC50” value was above 1000 nM.

For the molecule B3, the “cAMP assay IC50” value was above 1000 nM.

As to B4, the “cAMP assay IC50” value is above 1000 nM.

In the case of B5, the “cAMP assay IC50” value is above 1000 nM.

Consider B6, for which the “cAMP assay IC50” value is above 1000 nM.

Regarding B7, the “cAMP assay IC50” value was above 1000 nM.

Take B9: the “cAMP assay IC50” value was above 1000 nM.

The target of the next test is human amylin AMY1 receptor (hCTR + hRAMP1) (human, UniProt P30988 25-474). Description: cell-based or functional assay.
As to B1, the “cAMP assay IC50” value was above 1000 nM.

On to B2, for which the “cAMP assay IC50” value is above 1000 nM.

Consider B8, for which the “cAMP assay IC50” value was above 1000 nM.

On to B3, for which the “cAMP assay IC50” value was above 1000 nM.

For B4, the “cAMP assay IC50” value is above 1000 nM.

For the molecule B5, the “cAMP assay IC50” value is above 1000 nM.

As to B6, the “cAMP assay IC50” value is above 1000 nM.

As to B7, the “cAMP assay IC50” value was above 1000 nM.

In the case of B9, the “cAMP assay IC50” value is above 1000 nM.

Another test has as its target human adrenomedullin receptor 1 (hCRLR + hRAMP2) (human, UniProt O60895 43-175). Description: cell-based or functional assay.
Regarding B1, the “cAMP assay IC50” value is above 1000 nM.

Consider B2, for which the “cAMP assay IC50” value was above 1000 nM.

As for B8, the “cAMP assay IC50” value is above 1000 nM.

As to B3, the “cAMP assay IC50” value is above 1000 nM.

B4: the “cAMP assay IC50” value was above 1000 nM.

Regarding B5, the “cAMP assay IC50” value is above 1000 nM.

In the case of B6, the “cAMP assay IC50” value was above 1000 nM.

As for B7, the “cAMP assay IC50” value is above 1000 nM.

Consider B9, for which the “cAMP assay IC50” value is above 1000 nM.

The target in a further test is human adrenomedullin receptor 2 (hCRLR + hRAMP3) (human, UniProt O60896 24-148). Description: cell-based or functional assay.
Turning to B1, the “cAMP assay IC50” value was above 1000 nM.

As to B2, the “cAMP assay IC50” value was above 1000 nM.

For B8, the “cAMP assay IC50” value was above 1000 nM.

As for B3, the “cAMP assay IC50” value is above 1000 nM.

Consider B4, for which the “cAMP assay IC50” value was above 1000 nM.

Consider B5, for which the “cAMP assay IC50” value is above 1000 nM.

Turning to B6, the “cAMP assay IC50” value is above 1000 nM.

B7: the “cAMP assay IC50” value was above 1000 nM.

B9: the “cAMP assay IC50” value was above 1000 nM.

The target in the next test is T2, human CGRP receptor (CRLR + RAMP1). In words: cell-based or functional assay. The source holds these as a separate data set.
On to B3, for which the “IC50 (read off the curve)” value was around 6 nM.

As for B6, the “IC50 (read off the curve)” value was around 1 nM.

A further test shares this target. Description: 125I-CGRP competition binding, HTB-10 cell membranes. The procedure: (§1) The plates were incubated at room temperature for 2 hours with shaking at 60 rpm, and then the contents of each well were filtered over 0.5% polyethyleneimine (PEI)-treated (for at least one hour) GF/C 96-well filter plates. The GF/C filter plates were washed six times with ice-cold 50 mM Tris, pH 7.5 and dried in an oven at 55° C. for 1 hour. The bottoms of the GF/C plates were then sealed. 40 μl Microscint™ 20 was added to each well, the tops of the GF/C plates were sealed with TopSeal™-A (a press-on adhesive sealing film), and the GF/C plates were counted with TopCount NXT (Packard). The data were analyzed using Prizm (GraphPad Software Inc.)
Turning to B1, the Ki – broadly, the dissociation constant of the complex between target and ligand, obtained from inhibition or displacement – was 0.147 nM.

B2: the Ki was determined as 0.097 nM.

Turning to B3, the Ki was found to be 0.033 nM.

Take B4: the Ki is 0.117 nM.

As to B5, the Ki was 0.052 nM.

Turning to B6, the Ki was found to be 0.03 nM.

Consider B7, for which the Ki turned out to be 0.023 nM.

Another test shares this target. In words: FACS on AM-1 CHO huCGRP R cells, KinExA n-curve analysis. Here is the method:
Briefly, AM-1 CHO huCGRP R-expressing cells, prepared as described above, were plated in 96-well plates at densities of 16,000 or 160,000 cells per well in DMEM medium containing 10% FBS, NEAA, PS, L Glut, NaPyr and 0.05% sodium azide. […] After an overnight incubation at 4° C. in a total volume of 120 μl, on a plate shaker, the cells were washed 2× with PBS+2% FBS, centrifuging and discarding supernatant each time. 100 μl/well of G anti-Hu Fc Cy5 (5 μg/mL; Jackson ImmunoResearch Laboratories Inc., West Grove, Pa., USA) containing 7AAD (5 μl/well) was then added and incubated at 4° C. for 40 min. The cells were washed 2× with PBS+2% FBS, centrifuging and discarding the supernatant each time. 100 μl PBS+2% FBS buffer was then added and analyzed by FACS to determined the binding geomean. The Kd was calculated using KinExA software by taking the negative geomean at each antibody concentration as the amount of free Ab present Rathanaswami, et al., Biochemical and Biophysical Research Communications 334 (2005) 1004-1013.
As to B2, the Kd – broadly, a measure of binding affinity in units of concentration – came out at 2.3 nM.

As for B4, the Kd stood at 1.5 nM.

Take B5: the Kd was 2.4 nM.

In the case of B7, the Kd stood at 2.5 nM.

For another test the target is unchanged. In words: radioligand competition: 125I-CGRP binding to human CGRP receptor on HTB-10 cell membranes, antibody as competitor. The procedure:
as §1
In the case of B3, the “IC50 (read off the curve)” value is around 0.1 nM.

Turning to B6, the “IC50 (read off the curve)” value is around 0.03 nM.
